In US7960548B2, “Keratinocyte growth factor receptor—tyrosine specific inhibitors for the prevention of cancer metastatis” (The Ohio State University Research Foundation, priority 2005, dated 2011):

B1: KGF: recombinant human Keratinocyte Growth Factor, member of the fibroblast growth factor family (FGF-7) (protein, UniProt P21781 32-194, looked up)
Fibroblast growth factor 7: CNDMTPEQMATNVNCSSPERHTRSYDYMEGGDIRVRRLFCRTQWYLRIDKRGKVKGTQEMKNNYNIMEIRTVAVGIVAIKGVESEFYLAMNKEGKLYAKKECNEDCNFKELILENHYNTYASAKWTHNGGEMFVALNQKGIPVRGKKTKKEQKTAHFLPMAIT

Tests used:
MCF-7 cells [1] = experiment: KGF-mediated motility of MCF-7 cells with TK signaling pathway inhibitors; type: cell-based, human
Description: (§1) In order to define the signaling pathway involved in the KGF-mediated breast cancer cell motility, we have examined the influence of inhibitors of intermediates in the TK signaling pathway (29, 30, 31). […] In addition, inhibition of Grb2, using a specific Grb2 antisense oligonucleotide, abolished KGF-mediated motility of MCF-7 cells (30, 31). […] Thus, we have observed that the KGFR-Erk1,2 pathway mediates KGF-induced cell motility in ER-positive breast cancer cells. Accordingly, inhibitors targeting the KGF/KGFR/Grb2/Erk1,2 pathway have the potential to be selective therapeutic or chemopreventive modalities against breast cancer metastasis. […] Thus we next considered the design of selective KGFR TK inhibitors to be examined in this study.

MCF-7 human cancer cells = experiment: Motility effect of KGF by time-lapse videomicroscopy and culture wounding; type: cell-based
Description: Based on this background information, we examined the motility effect of KGF on human breast cancer cells using time-lapse videomicroscopy and culture wounding (22, 23). […] The KGF motility effect is characterized by a rapid increase in ruffling of the plasma membrane and cell scattering. […] Scanning electron microscopy of KGF-treated MCF-7 cells confirmed dramatic changes in cell morphology consistent with active cell motility (FIG. 1). […] Changes in cell morphology, associated with membrane ruffling and motility are believed to be associated with cytoskeletal reorganization and necessary for adhesion foci, cell surface ligand-receptor binding and regulation of gene transduction (24, 25). Accordingly, we have previously observed a significant alteration in the distribution of f-actin in the cytoplasm of KGF stimulated MCF-7 cells (22).

MCF-7 cells [2] = experiment: MCF-7 nude mouse xenograft model, growth and metastasis (β-gal reporter); type: in vivo, female nu/nu balb/C mice
Description: In these experiments 5×10^6 viable MCF-7 cells, transfected with a β-gal reporter plasmid, were embedded into 0.2 ml Matrigel and implanted into female nude mice. Four animal/group were treated with either KGF (2.5 μg/kg) or control vehicle every other day. After 21 days of treatment the tumor, lung and liver tissue were removed and assayed for b-gal activity using a CRPG substrate for β-gal.
In order to determine the influence of KGF on tumor growth and development in vivo, we recently examined the effect of KGF treatment on the growth and metastasis of MCF-7 cells in a nude mouse xenograft model (27, 28). In these experiments 5×10^6 viable MCF-7 cells, transfected with a β-gal reporter plasmid, were embedded into 0.2 ml Matrigel and implanted into female nu/nu balb/C mice at 6 weeks of age. At 40 days after tumor cell implantation, when approximately 0.5 cm tumor masses were observed, animal were treated with either human recombinant KGF or control vehicle by intra-tumoral injections every other day for a period of 21 days. […] In tumor and tissue samples, collected at the end of the treatment period, the β-gal activity was used as a reported to quantify MCF-7 cells as previously described (27). […] However, in the connective tissue surrounding the tumors and in the lung and liver tissue samples, the β-gal activity was much greater in the KGF treated than in the control samples (FIG. 2) (28). The results of the present study indicate that KGF enhances the migration of breast cancer cells away from the tumor mass, resulting in measurable lung and liver metastasis within the 21 day treatment period.

phospho-Erk1,2 = experiment: Western blot of phospho-Erk1,2 in MCF-7 cells; type: cell-based, human; settings: 50 ng/ml KGF and/or inhibitor for 3 days
Description: The cells were treated with 50 ng/ml KGF and/or signal transduction inhibitor for 3 days. Equal amounts of protein (10 μg) were loaded for SDS-PAGE analysis.
as §1

MCF-7, T-47D, ZR-75-1 = experiment: KGF motility response of ER-positive human breast cancer cell lines; type: cell-based; settings: KGF 10-50 ng/ml
Description: In our previous experiments, all of the estrogen receptor (ER)-positive human breast cancer cell lines examined (MCF-7, T-47D, ZR-75-1) responded to KGF treatment (10-50 ng/ml); however, the responsiveness differed substantially among the cell lines tested.

[3] = system: MDA-MB-231, SK-BR-3, BT-20; experiment: KGF motility response of ER-negative cell lines; type: cell-based, human; settings: KGF 10-50 ng/ml

Molecule | KGF-mediated motility of MCF-7 cells (MCF-7 cells [1]) | duration of change in morphology of MCF-7 cells (MCF-7 human cancer cells) | motility effect on MCF-7 cells (MCF-7 human cancer cells) | perimeter index (PI) (MCF-7 human cancer cells) | time of maximal KGF motility effect (MCF-7 human cancer cells) | β-gal activity in connective tissue surrounding the tumors, lung and liver (MCF-7 cells [2]; end of 21 day treatment) | β-gal activity in tumor tissue (MCF-7 cells [2]; end of 21 day treatment) | tumor volume (MCF-7 cells [2]; intra-tumoral injections every other day for 21 days, KGF 2.5 μg/kg) | phospho-Erk1,2 protein level (phospho-Erk1,2) | response to KGF treatment, ER-positive cell lines (MCF-7, T-47D, ZR-75-1) | enhancement in motility, ER-negative cell lines [3]
COc1cccc(-c2cc(=O)c3ccccc3o2)c1N [PD98059] | completely abolished |  |  |  |  |  |  |  |  |  | 
O=c1c(-c2ccc(O)cc2)coc2cc(O)cc(O)c12 [genistein] | completely abolished |  |  |  |  |  |  |  |  |  | 
B1 |  | at least 48 hours | cell scattering motility effect | dose-related increase | one | much greater | significantly less than in the controls | the same as in the control tumors | increase | responded | little or no enhancement
